T1: hCTLA4_ECD.His point mutant M38 to alanine (human, UniProt P16410 36-161)
T1 construct: extracellular domain; alanine-scan mutein, HEK293F supernatant
T1 sequence (looked up): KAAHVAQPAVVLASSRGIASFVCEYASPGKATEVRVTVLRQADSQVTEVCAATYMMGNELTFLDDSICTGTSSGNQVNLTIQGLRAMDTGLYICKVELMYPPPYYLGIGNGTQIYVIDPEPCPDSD

T2: hCTLA4_ECD.His point mutant H39 to alanine (human, UniProt P16410 36-161)
T2 construct: extracellular domain; alanine-scan mutein, HEK293F supernatant
T2 sequence (looked up): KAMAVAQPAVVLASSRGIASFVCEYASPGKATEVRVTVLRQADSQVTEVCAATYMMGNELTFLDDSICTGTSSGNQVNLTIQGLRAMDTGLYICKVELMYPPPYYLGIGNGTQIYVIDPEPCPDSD

T3: hCTLA4_ECD.His point mutant V40 to alanine (human, UniProt P16410 36-161)
T3 construct: extracellular domain; alanine-scan mutein, HEK293F supernatant
T3 sequence (looked up): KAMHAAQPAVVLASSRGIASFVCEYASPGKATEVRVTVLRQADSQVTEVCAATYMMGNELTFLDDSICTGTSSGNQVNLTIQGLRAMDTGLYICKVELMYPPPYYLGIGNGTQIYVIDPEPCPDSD

T4: hCTLA4_ECD.His point mutant Y60 to alanine (human, UniProt P16410 36-161)
T4 construct: extracellular domain; alanine-scan mutein, HEK293F supernatant
T4 sequence (looked up): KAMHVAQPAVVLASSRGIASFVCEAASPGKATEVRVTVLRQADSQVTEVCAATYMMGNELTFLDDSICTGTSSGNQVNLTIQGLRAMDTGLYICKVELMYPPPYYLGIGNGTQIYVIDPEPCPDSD

T5: hCTLA4_ECD.His point mutant A66 to glycine (human, UniProt P16410 36-161)
T5 construct: extracellular domain; alanine-scan mutein (alanine residues were mutated to glycine), HEK293F supernatant
T5 sequence (looked up): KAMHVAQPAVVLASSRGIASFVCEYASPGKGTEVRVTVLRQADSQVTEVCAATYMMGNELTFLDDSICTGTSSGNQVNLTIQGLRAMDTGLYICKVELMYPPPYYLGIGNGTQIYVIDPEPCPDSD

T6: hCTLA4_ECD.His point mutant L74 to alanine (human, UniProt P16410 36-161)
T6 construct: extracellular domain; alanine-scan mutein, HEK293F supernatant
T6 sequence (looked up): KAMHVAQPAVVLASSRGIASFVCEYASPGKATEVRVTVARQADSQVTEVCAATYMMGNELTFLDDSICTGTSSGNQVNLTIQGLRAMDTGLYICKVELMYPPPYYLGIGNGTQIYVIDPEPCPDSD

T7: hCTLA4_ECD.His point mutant R75 to alanine (human, UniProt P16410 36-161)
T7 construct: extracellular domain; alanine-scan mutein, HEK293F supernatant
T7 sequence (looked up): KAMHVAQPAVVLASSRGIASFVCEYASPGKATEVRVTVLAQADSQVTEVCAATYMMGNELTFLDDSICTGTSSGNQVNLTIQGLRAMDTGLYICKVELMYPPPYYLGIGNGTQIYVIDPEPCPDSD

T8: hCTLA4_ECD.His point mutant C85 to alanine (human, UniProt P16410 36-161)
T8 construct: extracellular domain; alanine-scan mutein, HEK293F supernatant
T8 sequence (looked up): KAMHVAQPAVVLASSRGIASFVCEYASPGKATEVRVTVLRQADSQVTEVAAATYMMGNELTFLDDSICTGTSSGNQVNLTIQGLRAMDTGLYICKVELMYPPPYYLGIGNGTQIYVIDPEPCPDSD

T9: hCTLA4_ECD.His point mutant T88 to alanine (human, UniProt P16410 36-161)
T9 construct: extracellular domain; alanine-scan mutein, HEK293F supernatant
T9 sequence (looked up): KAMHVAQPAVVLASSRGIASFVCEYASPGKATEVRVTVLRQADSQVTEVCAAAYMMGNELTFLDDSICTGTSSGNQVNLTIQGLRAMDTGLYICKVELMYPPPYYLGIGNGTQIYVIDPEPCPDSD

T10: hCTLA4_ECD.His point mutant C129 to alanine (human, UniProt P16410 36-161)
T10 construct: extracellular domain; alanine-scan mutein, HEK293F supernatant
T10 sequence (looked up): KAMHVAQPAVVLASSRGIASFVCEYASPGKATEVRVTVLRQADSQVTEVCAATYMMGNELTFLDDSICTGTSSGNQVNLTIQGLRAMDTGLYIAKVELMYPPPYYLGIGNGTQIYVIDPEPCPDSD

T11: hCTLA4_ECD.His point mutant M134 to alanine (human, UniProt P16410 36-161)
T11 construct: extracellular domain; alanine-scan mutein, HEK293F supernatant
T11 sequence (looked up): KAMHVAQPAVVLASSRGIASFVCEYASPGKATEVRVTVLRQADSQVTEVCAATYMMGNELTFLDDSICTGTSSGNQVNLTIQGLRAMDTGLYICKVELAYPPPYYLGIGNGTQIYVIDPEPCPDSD

T12: hCTLA4_ECD.His point mutant G146 to alanine (human, UniProt P16410 36-161)
T12 construct: extracellular domain; alanine-scan mutein, HEK293F supernatant
T12 sequence (looked up): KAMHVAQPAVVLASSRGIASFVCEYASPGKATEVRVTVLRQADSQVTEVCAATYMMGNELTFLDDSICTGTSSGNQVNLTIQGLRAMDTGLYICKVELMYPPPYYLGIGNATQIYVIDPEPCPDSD

T13: hCTLA4_ECD.His point mutant I149 to alanine (human, UniProt P16410 36-161)
T13 construct: extracellular domain; alanine-scan mutein, HEK293F supernatant
T13 sequence (looked up): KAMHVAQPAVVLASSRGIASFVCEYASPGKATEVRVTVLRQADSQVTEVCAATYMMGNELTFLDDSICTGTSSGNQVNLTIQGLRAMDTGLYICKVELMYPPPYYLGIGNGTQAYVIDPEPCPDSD


Columns and labels:
Assay in all cases: capture ELISA, alanine scan, vs silent alanine substitutions
[1] = target: T1, hCTLA4_ECD.His point mutant M38 to …
Protocol: (§1) In order to test how the mutations affect antibody-binding, a capture ELISA was conducted. […] After interacting with the supernatant that contains quantified CTLA4 muteins, HRP conjugated anti-His antibody (1:5000; Rockland Immunochemicals, Pottstown, Pa.) was added as detection antibody. TMB was used as substance of HRP. Absorbance was normalized according to the average of control mutants. After setting an additional cutoff to the binding fold change (<0.55), the final determined epitope residues were identified.

[2] = target: T2, hCTLA4_ECD.His point mutant H39 to …
Protocol: as §1

[3] = target: T3, hCTLA4_ECD.His point mutant V40 to …
Protocol: as §1

[4] = target: T4, hCTLA4_ECD.His point mutant Y60 to …
Protocol: as §1

[5] = target: T5, hCTLA4_ECD.His point mutant A66 to …
Protocol: as §1

[6] = target: T6, hCTLA4_ECD.His point mutant L74 to …
Protocol: as §1

[7] = target: T7, hCTLA4_ECD.His point mutant R75 to …
Protocol: as §1

[8] = target: T8, hCTLA4_ECD.His point mutant C85 to …
Protocol: as §1

[9] = target: T9, hCTLA4_ECD.His point mutant T88 to …
Protocol: as §1

[10] = target: T10, hCTLA4_ECD.His point mutant C129 to …
Protocol: as §1

[11] = target: T11, hCTLA4_ECD.His point mutant M134 to …
Protocol: as §1

[12] = target: T12, hCTLA4_ECD.His point mutant G146 to …
Protocol: as §1

[13] = target: T13, hCTLA4_ECD.His point mutant I149 to …
Protocol: as §1

Row | Fold change [1] [fold] | Fold change [2] [fold] | Fold change [3] [fold] | Fold change [4] [fold] | Fold change [5] [fold] | Fold change [6] [fold] | Fold change [7] [fold] | Fold change [8] [fold] | Fold change [9] [fold] | Fold change [10] [fold] | Fold change [11] [fold] | Fold change [12] [fold] | Fold change [13] [fold] | Binder
1 | 0.182 | 0.529 | 0.181 | 0.223 | 0.395 | 0.398 | 0.278 | 0.256 | 0.423 | 0.182 | 0.254 | 0.166 | 0.183 | W3162-1.146.19-z12-uAb.IgG1K (antibody, V domains shown, Humanized; label says IgG1K) VH: QVQLQESGPGLVKPSETLSLTCSVTYHTITSGYDWTWIRKPPGKGMEWIGYISYSGNTNYNPSLKSRVTISRDTSKNQFFLKLSSVTAADTAVYYCASMMVPHYYVMDAWGQGTLVTVSS VL: DIVMTQTPLSLSVTPGQPASISCRSSQSLLNSDGNTYLYWYLQKPGQSPQLLIYLVSKLGSGVPNRFSGSGSGTDFTLKISRVEAEDVGVYYCVQGTHDPWTFGGGTKVEIK
2 | 0.238 | 0.549 | 0.187 | 0.24 | 0.519 | 0.52 | 0.298 | 0.218 | 0.433 | 0.211 | 0.455 | 0.201 | 0.319 | W3162_1.154.8-z35-uAb.IgG1K (antibody, V domains shown, Humanized; label says IgG1K) VH: QVQLVQSGAEVKKPGSSVKVSCKASGYTFTNYFMNWVRQAPGQGLEWMGRVDPEQGRADYAEKFKKRVTITADKSTSTAYMELSSLRSEDTAVYYCARRAMDNYGFAYWGQGTLVTVSS VL: EIVLTQSPDFQSVTPKEKVTITCSANSALSYMYWYQQKPDQSPKLWVHGTSNLASGVPSRFSGSGSGTDFTLTINSLEAEDAATYYCHHWSNTQWTFGGGTKVEIK
